# In patent US20250066499A1 (SUNSHINE GUOJIAN PHARMACEUTICAL SHANGHAI, published 2025):
# Positions count from the first letter of the chain named.
# T1: CD73-ND-his (human, UniProt P21589 27-317)
# T1 construct: Biotinylated and captured on streptavidin in the ELISA
# T1 sequence: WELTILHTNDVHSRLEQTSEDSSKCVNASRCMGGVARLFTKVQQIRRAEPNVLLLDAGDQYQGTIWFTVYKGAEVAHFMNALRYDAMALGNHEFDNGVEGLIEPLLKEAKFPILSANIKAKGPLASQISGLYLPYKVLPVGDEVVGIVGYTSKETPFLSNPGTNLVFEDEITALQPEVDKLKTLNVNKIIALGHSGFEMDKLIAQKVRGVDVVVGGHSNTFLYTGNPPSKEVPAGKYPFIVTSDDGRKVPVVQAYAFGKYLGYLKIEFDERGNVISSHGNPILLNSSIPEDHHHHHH
# T2: CD73-ND-V144A (human, UniProt P21589 27-317)
# T2 construct: Alanine mutant of CD73-ND
# T2 sequence: T1 sequence with V144A
# T3: CD73-ND-K180A (human, UniProt P21589 27-317)
# T3 construct: Alanine mutant of CD73-ND
# T3 sequence: T1 sequence with K180A
# T4: CD73-ND-L181A (human, UniProt P21589 27-317)
# T4 construct: Alanine mutant of CD73-ND
# T4 sequence: T1 sequence with L181A
# T5: CD73-ND-K182A (human, UniProt P21589 27-317)
# T5 construct: Alanine mutant of CD73-ND
# T5 sequence: T1 sequence with K182A
# T6: CD73-ND-T183A (human, UniProt P21589 27-317)
# T6 construct: Alanine mutant of CD73-ND
# T6 sequence: T1 sequence with T183A
# B1: 48A11-HuV33 (antibody, human IgG4, V domains shown)
# VH: QVQLVQSGAEVKKPGASVKVSCKASGYTFTSYWMHWVRQAPGQGLEWIGEINPSIGRTNYNEKFKSRVTLTRDTSTSTAYMELSSLRSEDTAVYYCARRVYGTMDYWGQGTLVTVSS
# VL: DIQMTQSPSSLSASVGDRVTITCKASQDINSYLSWFQQKPGKSPKLLIYRANIWVDGVPSRFSGSGSGQDYTFTISSLQPEDIATYYCLQYDELYTFGQGTKVEIK
# notes: Humanized
# Columns and labels:
# Test in all cases: ELISA, high plateau value (OD 450 nm)
# CD73-ND-his = biological target: T1, CD73-ND-his
# Method: (§1) The ELISA plates were coated with SA protein diluted to 1.5 μg/mL in coating buffer (50 mM carbonate coating buffer, pH 9.6) and incubated overnight at 4° C. The supernatant was discarded, and the plates were washed three times with PBST. Then, 5% skimmed milk powder prepared with PBS was added for blocking and the plates were incubated for 2 h at 37° C. After washing the plates once with PBST, CD73-biotin protein (prepared by biotinylating CD73-His protein according to the EZ-Link NHS-Biotin Reagent instructions) was diluted to 0.5 μg/mL and added at 100 μL/well for incubation at room temperature for 1 h. The plates were washed three times with PBST, and the prepared murine-derived monoclonal antibodies against human CD73 were serially diluted with 1% BSA buffer prepared with PBST and added to the ELISA plates at 100 μl/well. The plates were incubated at 37° C. for 1 h. After washing the plates three times with PBST, HRP-labeled goat anti-mouse IgG secondary antibody was added and the plates were incubated for 30 min at 37° C. After washing the plates three times with PBST, the residual droplets were patted dry on absorbent paper as much as possible. Then, 100 μl of TMB color developing solution was added to each well, and the plates were incubated in the dark at room temperature for 5 min for color development. Subsequently, 50 μl of 2M H₂SO₄ stop solution was added to each well to terminate the substrate reaction. The OD values were read at 450 nm using a multimode microplate reader to analyze the binding ability of the tested antibodies to the target antigen human CD73-His.
# (§2) Referring to the experimental method in Example 3, the affinity of 48A11-HuV33 for various mutant proteins of CD73-ND was determined. The SA protein was diluted to 1 μg/mL for coating the ELISA plates, and the biotinylated CD73 protein (CD73-biotin) was used at a concentration of 0.1 μg/mL.
# CD73-ND-V144A = biological target: T2, CD73-ND-V144A
# Method: as §1, §2
# CD73-ND-K180A = biological target: T3, CD73-ND-K180A
# Method: as §1, §2
# CD73-ND-L181A = biological target: T4, CD73-ND-L181A
# Method: as §1, §2
# CD73-ND-K182A = biological target: T5, CD73-ND-K182A
# Method: as §1, §2
# CD73-ND-T183A = biological target: T6, CD73-ND-T183A
# Method: as §1, §2
binder,measurement,setting,value
B1,Top,CD73-ND-his,1.98
same,Top,CD73-ND-V144A,1.69
same,Top,CD73-ND-K180A,1.74
same,Top,CD73-ND-L181A,1.05
same,Top,CD73-ND-K182A,2.03
same,Top,CD73-ND-T183A,1.98
